Type in all cases: cell-based, human
Experiment [1] relates to cleaved caspase 3 and μ-H2AX. The experiment can be described thus: Western blot of cleaved caspase 3 and μ-H2AX in Ramos. Particulars: IL-4 10 ng/ml; 33 nM. The method, then:
Levels of cleaved caspase 3 (apoptotic protein) and μ-H2AX (DNA damage marker) were investigated by western blot in the Ramos B cells treated in the same paradigm. In brief, total proteins were extracted from the Ramos cells in RIPA lysis buffer supplemented with Halt™ Protease and Phosphatase Inhibitor Cocktail. Proteins were denatured and separated through electrophoresis and blotted on the nitrocellulose membrane. The membrane was blocked with 5% nonfat milk diluted in TBST, then incubated with primary antibodies diluted in 5% BSA/TBS T at 4° C. overnight in a rotating wheel. Next day, membrane was washed with PBST and incubated with secondary antibodies diluted in 5% milk/TBST for an hour at RT. Intensities of protein bands were determined using ECL substrate kit in the ChemiDoc Imaging System.
A general note: Immunoblotting shows a protein as a band on a membrane.

The subject of the next experiment is CD23 expression. Put plainly: qRT-PCR of CD23 expression in Ramos. Particulars: IL-4 10 ng/ml, 24 hours, 33 nM. As to the method: Genes related to the B cell functions were investigated by quantitative real-time PCR (qRT-PCR). In brief, Ramos cells were starved in serum-free RPMI1640 medium for 24 hours and then treated with 10 ng/ml IL-4 or IL-21 for 24 hours. Total RNA was extracted by RNAzol following manufacturer's protocol. Reverse transcription was performed in 500 ng of total RNA using PrimeScript RT reagent kit and the gene expression was analyzed by quantitative real-time PCR using TB Green Premix Ex Taq in Lightcycler® 480 Real-Time PCR System. Housekeeping gene GAPDH was used for normalization.
In general terms: Real-time PCR tracks product formation cycle by cycle.

In another experiment the test system is granzyme A secretion. Put plainly: Granzyme A secretion from KHYG-1, ELISA. The following applies: 3 days, 33 nM. The method, then: To test the efficacies of anti-γc antibodies, proliferation and granzyme A secretion were chosen as the experimental models. In brief, KHYG-1 was seeded into either 48- or 96-well plates and starved in non-IL-2 supplemented medium overnight. After replenishment with new medium, KHYG-1 was pre-incubated with anti-γc antibodies or ritlecitinib for an hour before the administration of γc cytokines for 3 days. Proliferation rate was determined by the addition of WST-8 reagent while the secretion of granzyme A was estimated by ELISA measurement.
(In general: An ELISA detects its analyte on a solid surface through an enzyme-linked reagent.)

Experiment [2] concerns granzyme and IFNγ secretion. The experiment can be described thus: Secretion of granzymes and IFNγ from PBMC culture, ELISA. The method, then:
Activation of T and NK cells in the PBMC culture could be studied by granzyme and IFNγ secretion [Carlin et al., Blood., 2005; 106 (12): 3874-9; Grossman et al., Blood., 2004; 104 (9): 2840-8; Keppel et al., J Immunol., 2015; 194 (4): 1954-1962; Tamang et al., Cytokine., 2006; 36 (3-4): 148-59]. Similar results are obtained in-house that IL-2 and IL-15 but not IL-21 could trigger secretion of granzyme A and IFNγ in PBMC culture (FIG. 15A-B).
Antibodies or ritlecitinib were added into the PBMC culture to investigate their inhibitory effects in the presence of IL-2 or IL-15 treatment.
Releases of cytolytic agents from PBMC culture were further evaluated by ELISA assays.

Experiment [3] relates to IL-15 induced STAT5 phosphorylation. Put plainly: Inhibition of IL-15 induced STAT phosphorylation in KHYG-1 NK cell line, flow cytometry. The following applies: ScFv 10 μg/ml. An excerpt: (§1) Cells were harvested and stained with FITC conjugated anti-pSTAT6, PE conjugated anti-pSTAT3 or APC con jugated anti-pSTAT5 antibodies for flow cytometry analyses. In some embodiments, the purified ScFv could block the IL-4 induced STAT6 phosphorylation in cell culture (e.g., Ramos). In some embodiments, the purified ScFv could block the IL-7 induced STAT5 phosphorylation in cell culture (e.g., HPB-ALL). In some embodiments, the purified ScFv could block the IL-9 induced STAT3 phosphorylation in cell culture (e.g., Jurkat). In some embodiments, the purified ScFv could block the IL-15 induced STAT5 phosphorylation in cell culture (e.g., KHYG-1). In some embodiments, the purified ScFv could block the IL-21 induced STAT3 phosphorylation in cell culture (e.g., Ramos).
(§2) Flow cytometry was employed to measure the percentage of p-STAT expressing cells after cytokine induction and anti-γc ScFv treatment. KHYG-1 (Creative Bioarray, Shirley, NY 11967, USA) was starved in IL-2 free RPMI1640 (ATCC modification, ThermoFisher Scientific, Waltham, MA, USA) with 10% FBS (ThermoFisher Scientific) for 2 days. Ramos, HPB-ALL and Jurkat cell lines were used directly without starvation. Cells were replenished with fresh RPMI1640 medium and pretreated with anti-γc ScFv (10 μg/mL) for an hour. After treatment with TL-4 (10 ng/ml, Sino Biological), IL-7 (50 ng/ml, Sino Biological), IL-9 (50 ng/ml, Sino Biological), IL-15 (10 ng/ml, Sino Biological) or IL-21 (10 ng/ml, Sino Biological) for 15 min, cells were fixed in 4% paraformaldehyde (PFA, Sigma, St. Louis, Missouri, USA) for 10 min, permeabilized in 0.1% Triton X-100 (Sigma) for 10 min and then stained with FITC conjugated anti-pSTAT6, PE conjugated anti-pSTAT3 or APC con jugated anti-pSTAT5 (all diluted in 1:100, Biolegend, San Diego, California, USA) for 30 min at 37° C. Percentage of p-STAT expressing cells was measured by BD FACSLyric™ Clinical Flow Cytometry System (BD Biosciences, New Jersey, USA). Data were analyzed by Flowjo (version 10, BD).
(§3) Different cell lines were used for testing. KHYG-1 refers to the NK cell line harvested from the peripheral blood of a person with aggressive NK cell leukemia. This cell line could respond to IL-2 and IL-15 stimulation in-vitro [Yamasaki et al., Leuk Res., […]; 28 (10): 1023-31]. Ramos is a human Burkitts Lymphoma cell line (CRL-1596™) and could be used as a model for IL-4 and IL-21 studies [Hui et al., Front Immunol., 2022; 13: 919854]. Jurkat is a human T lymphoblast cell line (Clone E6-1, TIB-152™) and is widely used in the T cell studies of IL-9 function. HPB-ALL is a T cell leukemia model established from the peripheral blood of a child with ALL and thymoma at diagnosis in 1973 and could be used for IL-7 functional studies.

Experiment [4] has as its system IL-4 induced STAT6 phosphorylation. Put plainly: Inhibition of IL-4 induced STAT phosphorylation in Ramos B cell line, flow cytometry. Particulars: ScFv 10 μg/ml.
Text: as §1, §2, §3

Experiment [5] concerns IL-21 induced STAT3 phosphorylation. The experiment can be described thus: Inhibition of IL-21 induced STAT phosphorylation in Ramos B cell line, flow cytometry. Particulars: ScFv 10 μg/ml.
Text: as §1, §2, §3

Experiment [6] relates to IL-7 induced STAT5 phosphorylation. The experiment can be described thus: Inhibition of IL-7 induced STAT5 phosphorylation in HPB-ALL T cell line, flow cytometry. Particulars: ScFv 10 μg/ml.
Text: as §1, §2, §3

Experiment [7] deals with IL-9 induced STAT3 phosphorylation. The experiment can be described thus: Inhibition of IL-9 induced STAT3 phosphorylation in Jurkat T cell line, flow cytometry. Particulars: ScFv 10 μg/ml.
Text: as §1, §2, §3

For experiment [8], the system named is STAT phosphorylation induced by 6 γc cytokines. The experiment can be described thus: Flow cytometry of p-STAT with full-length anti-γc antibodies in multiple cell lines. Particulars: IL-2, IL-15 in KHYG-1; IL-4, IL-21 in Ramos; IL-7 in HPB-ALL; IL-9 in Jurkat; cytokines 10 ng/ml; 33 nM (5 μg/ml). As to the method:
Flow cytometry was employed to measure the percentage of p-STAT expressing cells after cytokine induction and anti-γc antibody treatment as previously described. IL-2 and IL-15 were tested in KHYG-1 NK cell line; IL-4 and IL-21 were tested in Ramos B cell line; IL-7 was tested in HPB-ALL T cell line; and IL-9 was tested in Jurkat T cell line.

Another experiment concerns Ramos B cells. The experiment can be described thus: WST-8 proliferation assay, IL-4/IL-21 rescue of anti-IgM induced cell death. Particulars: chimeric antibodies; 33 nM; IL-4/IL-21 10 ng/ml; 48 hours. As to the method:
The effects of anti-γc antibodies in blocking IL-4 and IL-21 rescues of Ramos cell death after anti-IgM induced hyperactivation were investigated by WST-8 proliferation assay. In brief, Ramos cells (50000 cells in 100 l) were seeded into 96-well plate and stabilized at 37° C. for an hour. Cells were pretreated in anti-γc antibodies or ritlecitinib for an hour, followed by incubation of IL-4 (10 ng/ml) or IL-21 (10 ng/ml) and anti-IgM (2 ug/ml, #109-006-129, Jackson ImmunoResearch). Aft er 48 hours, 10 μl WST-8 reagent (ab228554, Abcam) was added to each well and incubated for 4 hours.
WST-8 could be reduced by cellular dehydrogenases to an orange formazan product, which the amount of formazan produced is directly proportional to the number of living Ramos cells. Optical density (OD) of each well was measured by absorbance at 450 nm using Varioskan LUX Multimode Microplate Reader (ThermoFisher Scientific).

With `C=CC(=O)N1C[C@H](Nc2ncnc3[nH]ccc23)CC[C@@H]1C` [ritlecitinib], in [1], the “block of IL-4 protective effects, μ-H2AX re-induced” value was “could block IL-4 protective effects”. The “suppression of IL-4 induced CD23 expression” value in the experiment on CD23 expression is on record as “significantly suppress IL-4 induced CD23 expression”. In addition, the “suppression of IL-2, IL-15 and IL-21 induced granzyme A secretion” value in the experiment on granzyme A secretion is “significantly suppress IL-2, IL-15 and IL-21 induced granzyme A secretion”. The “suppression of IL-2 and IL-15 induced secretion of granzyme A and IFNγ” value in [2] (IL-2, IL-15 20 ng/ml, three days, 33 nM) is reported as “significantly reduced”. Also, the “suppression of granzyme B secretion” value in experiment [2] (IL-2 or IL-15, 33 nM, humanized antibodies) is given as “superior suppression to granzyme B secretion”.

B1: SM-05F: anti-γc antibody, full-length chimeric; CDR SEQ ID NO: 84, 86, 88, 92, 94, 96 (antibody, V domains shown)
VH: EVQLQQSGPELVKPGASVKIFCKTSGYTFTEYTMHWVKQSHGESLEWIGGIDPNTGGVTYNQKFKGKATLTADKSSSTAYMELRSLTSEDSAVYYCARRRRYYGYALDYWGQGTSVTVSS
VL: DVLMTQTPLSLPVSLGDQASISCRSSQSIVHNNGNTYLEWYLQKPGQSPKLLIYKVSNRFFGVPDRFSGSGSGTYFTLKISRVEAEDLGVYYCFQGSHVPWTFGGGTKLEIKR
Consider B1, for which the “p-STAT5 inhibition (%)” value in experiment [3] turned out to be 43.73%; in experiment [6], 99.42%. For the same molecule, the “p-STAT6 inhibition (%)” value in experiment [4] was 45.99%. Further, the “p-STAT3 inhibition (%)” value in experiment [5] worked out at 78.97%; in experiment [7], 92.36%. Also, in experiment [8], the “block of STAT phosphorylation” value is given as “barely demonstrated strong inhibitory effects”. The “block of IL-4 and IL-21 rescue of anti-IgM induced cell death (WST-8)” value in the experiment on Ramos B cells was “could block the effects of IL-4 and IL-21”.

These data come from patent US20260209365A1, “ANTI-COMMON GAMMA CHAIN PROTEINS AND COMPOSITIONS OF MATTER” (SINOMAB BIOSCIENCE LIMITED, priority 2023, published 2026).
